Source: US20140242080A1 (Hoffmann-La Roche, published 2014)
Substitutions are numbered along the chain they refer to.

T1: hu-MCSP(D3 domain)-avi-his (human, UniProt Q6UVK1 1582-2224)
T1 construct: Recombinant D3 domain with avi and his tags; also called human MCSP(D3 domain)-avi-his; Human MCSP D3
T1 sequence: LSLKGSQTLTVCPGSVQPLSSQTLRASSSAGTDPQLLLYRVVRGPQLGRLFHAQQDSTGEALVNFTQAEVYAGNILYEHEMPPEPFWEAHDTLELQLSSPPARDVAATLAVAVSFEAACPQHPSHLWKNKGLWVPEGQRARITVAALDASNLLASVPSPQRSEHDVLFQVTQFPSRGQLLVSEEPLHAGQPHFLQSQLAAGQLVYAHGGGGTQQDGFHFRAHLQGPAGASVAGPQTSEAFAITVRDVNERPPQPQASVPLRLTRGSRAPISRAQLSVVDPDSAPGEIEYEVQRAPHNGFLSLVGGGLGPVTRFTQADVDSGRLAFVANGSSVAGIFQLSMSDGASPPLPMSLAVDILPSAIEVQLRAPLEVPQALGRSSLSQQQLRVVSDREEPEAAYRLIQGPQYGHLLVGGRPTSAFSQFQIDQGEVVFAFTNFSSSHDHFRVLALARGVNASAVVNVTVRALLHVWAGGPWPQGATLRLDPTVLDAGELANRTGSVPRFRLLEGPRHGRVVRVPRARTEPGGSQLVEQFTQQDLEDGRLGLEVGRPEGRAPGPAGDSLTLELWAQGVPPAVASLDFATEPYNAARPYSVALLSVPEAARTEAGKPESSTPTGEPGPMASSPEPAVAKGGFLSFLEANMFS

B1: 1 + 1 IgG Crossfab; VL/VH exchange (LC007/V9) (anti-MCSP/anti-huCD3) (bispecific antibody)
chain 1: DIVLTQSPSSLSASLGDRVTISCSASQGIRNYLNWYQQRPDGTVKLLIYYTSSLHSGVPSRFSGSGSGTDYSLTISNLEPEDIATYYCQQYSKLPWTFGGGTKLEIKRTVAAPSVFIFPPSDEQLKSGTASVVCLLNNFYPREAKVQWKVDNALQSGNSQESVTEQDSKDSTYSLSSTLTLSKADYEKHKVYACEVTHQGLSSPVTKSFNRGEC
chain 2: DIQMTQSPSSLSASVGDRVTITCRASQDIRNYLNWYQQKPGKAPKLLIYYTSRLESGVPSRFSGSGSGTDYTLTISSLQPEDFATYYCQQGNTLPWTFGQGTKVEIKSSASTKGPSVFPLAPSSKSTSGGTAALGCLVKDYFPEPVTVSWNSGALTSGVHTFPAVLQSSGLYSLSSVVTVPSSSLGTQTYICNVNHKPSNTKVDKKVEPKSCGGGGSGGGGSEVQLQESGPGLVKPSQSLSLTCSVTGYSITSGYYWNWIRQFPGNKLEWMGYITYDGSNNYNPSLKNRISITRDTSKNQFFLKLNSVTTEDTATYYCADFDYWGQGTTLTVSSASTKGPSVFPLAPSSKSTSGGTAALGCLVKDYFPEPVTVSWNSGALTSGVHTFPAVLQSSGLYSLSSVVTVPSSSLGTQTYICNVNHKPSNTKVDKKVEPKSCDKTHTCPPCPAPEAAGGPSVFLFPPKPKDTLMISRTPEVTCVVVDVSHEDPEVKFNWYVDGVEVHNAKTKPREEQYNSTYRVVSVLTVLHQDWLNGKEYKCKVSNKALGAPIEKTISKAKGQPREPQVCTLPPSRDELTKNQVSLSCAVKGFYPSDIAVEWESNGQPENNYKTTPPVLDSDGSFFLVSKLTVDKSRWQQGNVFSCSVMHEALHNHYTQKSLSLSPGK
chain 3: EVQLVESGGGLVQPGGSLRLSCAASGYSFTGYTMNWVRQAPGKGLEWVALINPYKGVSTYNQKFKDRFTISVDKSKNTAYLQMNSLRAEDTAVYYCARSGYYGDSDWYFDVWGQGTLVTVSSASVAAPSVFIFPPSDEQLKSGTASVVCLLNNFYPREAKVQWKVDNALQSGNSQESVTEQDSKDSTYSLSSTLTLSKADYEKHKVYACEVTHQGLSSPVTKSFNRGEC
chain 4: not shown
B2: 1 + 1 CrossMab; CL/CH1 exchange (LC007/V9) (anti-MCSP/anti-huCD3) (bispecific antibody)
chain 1: B1 chain 1
chain 2: EVQLQESGPGLVKPSQSLSLTCSVTGYSITSGYYWNWIRQFPGNKLEWMGYITYDGSNNYNPSLKNRISITRDTSKNQFFLKLNSVTTEDTATYYCADFDYWGQGTTLTVSSASTKGPSVFPLAPSSKSTSGGTAALGCLVKDYFPEPVTVSWNSGALTSGVHTFPAVLQSSGLYSLSSVVTVPSSSLGTQTYICNVNHKPSNTKVDKKVEPKSCDKTHTCPPCPAPEAAGGPSVFLFPPKPKDTLMISRTPEVTCVVVDVSHEDPEVKFNWYVDGVEVHNAKTKPREEQYNSTYRVVSVLTVLHQDWLNGKEYKCKVSNKALGAPIEKTISKAKGQPREPQVCTLPPSRDELTKNQVSLSCAVKGFYPSDIAVEWESNGQPENNYKTTPPVLDSDGSFFLVSKLTVDKSRWQQGNVFSCSVMHEALHNHYTQKSLSLSPGK
chain 3: DIQMTQSPSSLSASVGDRVTITCRASQDIRNYLNWYQQKPGKAPKLLIYYTSRLESGVPSRFSGSGSGTDYTLTISSLQPEDFATYYCQQGNTLPWTFGQGTKVEIKSSASTKGPSVFPLAPSSKSTSGGTAALGCLVKDYFPEPVTVSWNSGALTSGVHTFPAVLQSSGLYSLSSVVTVPSSSLGTQTYICNVNHKPSNTKVDKKVEPKSC
chain 4: not shown
B3: 2 + 1 IgG Crossfab; CL/CH1 exchange (M4-3 ML2/V9) (anti-MCSP/anti-huCD3) (bispecific antibody)
chain 1: B2 chain 3
chain 2: not shown
chain 3: QVQLQESGPGLVKPSQTLSLTCTVSGGSITSGYYWNWIRQHPGKGLEWIGYITYDGSNNYNPSLKSRVTISRDTSKNQFSLKLSSVTAADTAVYYCADFDYWGQGTLVTVSSASTKGPSVFPLAPSSKSTSGGTAALGCLVKDYFPEPVTVSWNSGALTSGVHTFPAVLQSSGLYSLSSVVTVPSSSLGTQTYICNVNHKPSNTKVDKKVEPKSCDKTHTCPPCPAPEAAGGPSVFLFPPKPKDTLMISRTPEVTCVVVDVSHEDPEVKFNWYVDGVEVHNAKTKPREEQYNSTYRVVSVLTVLHQDWLNGKEYKCKVSNKALGAPIEKTISKAKGQPREPQVCTLPPSRDELTKNQVSLSCAVKGFYPSDIAVEWESNGQPENNYKTTPPVLDSDGSFFLVSKLTVDKSRWQQGNVFSCSVMHEALHNHYTQKSLSLSPGK
chain 4: not shown
B4: 2 + 1 IgG Crossfab; VL/VH exchange (M4-3 ML2/V9) (anti-MCSP/anti-huCD3) (bispecific antibody)
chain 1: B1 chain 3
chain 2: not shown
chain 3: not shown
chain 4: B3 chain 3
B5: Parental M4-3/ML2 Fab (Fab, V domains shown)
VH: QVQLQESGPGLVKPSQTLSLTCTVSGGSITSGYYWNWIRQHPGKGLEWIGYITYDGSNNYNPSLKSRVTISRDTSKNQFSLKLSSVTAADTAVYYCADFDYWGQGTLVTVSS
VL: DIQMTQSPSSLSASVGDRVTITCRASQGIRNYLNWYQQKPGKAPKLLIYYTSSLHSGVPSRFSGSGSGTDFTLTISSLQPEDFATYYCQQYSKLPWTFGQGTKVEIK
notes: Soluble Fab with Flag tag, bacterial supernatant or purified; also called non-matured parental clone
B6: M4-3(A7)/ML2 Fab (Fab, V domains shown)
VH: B5 VH with S31D, Y54F, S57R
VL: B5 VL
notes: Soluble Fab with Flag tag
B7: M4-3(B8)/ML2 Fab (Fab, V domains shown)
VH: B5 VH with Y54F, S57R
VL: B5 VL
notes: Soluble Fab with Flag tag
B8: M4-3(C1)/ML2 Fab (Fab, V domains shown)
VH: B5 VH with Y54F
VL: B5 VL
notes: Soluble Fab with Flag tag
B9: M4-3(D6)/ML2 Fab (Fab, V domains shown)
VH: B5 VH with Y54F, S57K
VL: B5 VL
notes: Soluble Fab with Flag tag
B10: M4-3/ML2(C5) Fab (Fab, V domains shown)
VH: B5 VH
VL: B5 VL with Q27R, N31E, S52G, K93E
notes: Soluble Fab with Flag tag
B11: M4-3/ML2(E10) Fab (Fab, V domains shown)
VH: B5 VH
VL: B5 VL with Q27Y, N31G, Y87H
notes: Soluble Fab with Flag tag
B12: M4-3/ML2(G3) Fab (Fab, V domains shown)
VH: B5 VH
VL: B5 VL with F71Y, K93A
notes: Soluble Fab with Flag tag

Columns and labels:
[1] = target: human MCSP expressed on tumor cells (Colo-38, WM266-4, A375, MV-3, HCT-116) (human, UniProt Q6UVK1 30-2322); assay: cell-based or functional assay
[2] = target: T1, hu-MCSP(D3 domain)-avi-his; assay: SPR ProteOn XPR36, 25 C; Fab captured via anti-human F(ab')2, MCSP D3 as analyte
Experimental: Briefly, carboxymethylated dextran biosensor chips (CM5, GE Healthcare) were activated with N-ethyl-N′-(3-dimethylaminopropyl)-carbodiimide hydrochloride (EDC) and N-hydroxysuccinimide (NHS) according to the supplier's instructions. Anti-human F(ab′)2 fragment specific capture antibody was diluted with 10 mM sodium acetate, pH 5.0 at 50 μg/ml before injection at a flow rate of 10 μl/minute to achieve approximately up to 10.000 response units (RU) of coupled capture antibody. Following the injection of the capture antibody, 1 M ethanolamine is injected to block unreacted groups. For kinetics measurements, Fabs from bacterial supernatant or purified Fabs were injected at a flow rate of 10 μl/minute for 300 s and a dissociation of 300 s for capture baseline stabilization. […] The surface of the sensorchip was regenerated by injection of glycine pH 1.5 for 30 s at 90 μl/min followed by injection of NaOH for 20 s at the same flow rate. Association rates (kₒₙ) and dissociation rates (koff) were calculated using a simple one-to-one Langmuir binding model (ProteOn XPR36 Evaluation Software or Scrubber software (BioLogic)) by simultaneously fitting the association and dissociation sensorgrams. The equilibrium dissociation constant (KD) was calculated as the ratio koff/kₒₙ.

Sequence of human MCSP expressed on tumor cells (Colo-38, WM266-4, A375, MV-3, HCT-116) (Q6UVK1 30-2322): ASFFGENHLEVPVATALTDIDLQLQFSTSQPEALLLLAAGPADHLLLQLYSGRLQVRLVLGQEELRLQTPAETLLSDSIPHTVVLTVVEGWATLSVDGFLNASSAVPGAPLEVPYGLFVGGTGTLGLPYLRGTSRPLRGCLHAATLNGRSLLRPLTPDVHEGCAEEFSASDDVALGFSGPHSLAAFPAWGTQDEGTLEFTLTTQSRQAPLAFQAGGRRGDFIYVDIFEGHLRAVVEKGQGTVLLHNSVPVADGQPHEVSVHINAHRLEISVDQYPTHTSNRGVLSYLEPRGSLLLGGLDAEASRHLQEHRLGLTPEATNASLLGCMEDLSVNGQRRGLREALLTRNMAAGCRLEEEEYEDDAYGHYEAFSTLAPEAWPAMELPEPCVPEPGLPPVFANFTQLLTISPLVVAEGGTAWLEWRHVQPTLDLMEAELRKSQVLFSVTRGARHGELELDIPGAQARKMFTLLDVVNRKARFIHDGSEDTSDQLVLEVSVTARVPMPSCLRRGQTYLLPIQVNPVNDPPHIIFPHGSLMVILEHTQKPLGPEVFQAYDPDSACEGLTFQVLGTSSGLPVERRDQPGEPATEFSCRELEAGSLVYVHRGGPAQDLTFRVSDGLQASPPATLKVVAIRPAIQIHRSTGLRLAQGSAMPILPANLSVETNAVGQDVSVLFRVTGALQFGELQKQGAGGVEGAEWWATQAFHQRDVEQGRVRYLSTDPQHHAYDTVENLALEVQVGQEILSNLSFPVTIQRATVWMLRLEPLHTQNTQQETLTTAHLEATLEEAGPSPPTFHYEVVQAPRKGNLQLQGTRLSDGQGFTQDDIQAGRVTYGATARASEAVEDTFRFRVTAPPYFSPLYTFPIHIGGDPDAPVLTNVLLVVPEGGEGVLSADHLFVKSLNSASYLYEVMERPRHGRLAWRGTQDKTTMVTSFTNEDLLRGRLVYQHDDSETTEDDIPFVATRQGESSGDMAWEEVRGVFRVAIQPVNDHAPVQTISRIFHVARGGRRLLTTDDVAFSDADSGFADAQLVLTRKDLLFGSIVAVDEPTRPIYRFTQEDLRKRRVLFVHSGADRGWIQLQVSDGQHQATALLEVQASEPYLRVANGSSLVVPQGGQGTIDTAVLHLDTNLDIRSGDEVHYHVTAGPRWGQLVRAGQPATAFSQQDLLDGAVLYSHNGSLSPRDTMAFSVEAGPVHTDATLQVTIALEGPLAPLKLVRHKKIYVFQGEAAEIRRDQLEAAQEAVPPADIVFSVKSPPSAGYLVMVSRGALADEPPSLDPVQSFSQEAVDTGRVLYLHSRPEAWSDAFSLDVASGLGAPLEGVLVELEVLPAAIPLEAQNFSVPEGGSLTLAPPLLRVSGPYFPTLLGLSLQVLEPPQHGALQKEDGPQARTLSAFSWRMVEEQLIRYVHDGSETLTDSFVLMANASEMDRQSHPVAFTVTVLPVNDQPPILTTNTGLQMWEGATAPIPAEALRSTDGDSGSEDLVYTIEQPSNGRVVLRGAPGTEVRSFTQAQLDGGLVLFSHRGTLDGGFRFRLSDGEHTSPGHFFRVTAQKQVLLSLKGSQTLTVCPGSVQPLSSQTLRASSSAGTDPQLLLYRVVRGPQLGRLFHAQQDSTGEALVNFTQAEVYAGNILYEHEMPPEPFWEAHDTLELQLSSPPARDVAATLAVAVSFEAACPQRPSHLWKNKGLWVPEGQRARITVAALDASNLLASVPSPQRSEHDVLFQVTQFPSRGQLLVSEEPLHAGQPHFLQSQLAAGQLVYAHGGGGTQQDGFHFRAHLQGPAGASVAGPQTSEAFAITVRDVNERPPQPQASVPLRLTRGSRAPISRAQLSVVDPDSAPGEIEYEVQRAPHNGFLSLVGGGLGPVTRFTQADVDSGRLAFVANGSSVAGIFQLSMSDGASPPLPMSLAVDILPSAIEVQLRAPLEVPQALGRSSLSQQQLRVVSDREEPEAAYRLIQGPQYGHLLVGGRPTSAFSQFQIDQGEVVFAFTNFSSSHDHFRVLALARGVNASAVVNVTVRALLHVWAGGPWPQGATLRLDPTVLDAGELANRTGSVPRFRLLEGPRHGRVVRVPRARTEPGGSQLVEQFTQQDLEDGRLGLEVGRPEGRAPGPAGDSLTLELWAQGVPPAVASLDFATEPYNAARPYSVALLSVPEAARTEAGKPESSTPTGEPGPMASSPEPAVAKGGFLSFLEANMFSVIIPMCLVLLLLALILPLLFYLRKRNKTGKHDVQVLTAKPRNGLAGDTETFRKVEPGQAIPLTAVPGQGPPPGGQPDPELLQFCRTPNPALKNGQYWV

Binder	Kd [2]	further results
B1		EC50 of T cell-mediated killing (LDH release), MV-3 cells, human PBMCs E:T 10:1, 21 h [1]: 0.0409 nM; EC50 of T cell-mediated killing (LDH release), WM266-4 cells, human PBMCs E:T 10:1, 21 h [1]: 0.0284 nM
B2		EC50 of T cell-mediated killing (LDH release), MV-3 cells, human PBMCs E:T 10:1, 21 h [1]: 0.0884 nM; EC50 of T cell-mediated killing (LDH release), WM266-4 cells, human PBMCs E:T 10:1, 21 h [1]: 0.0539 nM
B3		EC50 of T cell-mediated killing (LDH release), MV-3 cells, human PBMCs E:T 10:1, 27 h [1]: ~0.0117 nM; EC50 of T cell-mediated killing (LDH release), WM266-4 cells, human PBMCs E:T 10:1, 26 h [1]: 0.0129 nM
B4		EC50 of T cell-mediated killing (LDH release), MV-3 cells, human PBMCs E:T 10:1, 27 h [1]: ~0.0822 nM; EC50 of T cell-mediated killing (LDH release), WM266-4 cells, human PBMCs E:T 10:1, 26 h [1]: 0.0168 nM
B5	5 nM	
B6	0.02 nM	
B7	0.3 nM	
B8	0.6 nM	
B9	2 nM	
B10	0.7 nM	
B11	0.7 nM	
B12	0.4 nM	
